T1: human LEPR Ig (D3)-MMH (human, UniProt P48357 340-427, limits assumed)
T1 construct: domain: Ig (D3)
T1 sequence (looked up): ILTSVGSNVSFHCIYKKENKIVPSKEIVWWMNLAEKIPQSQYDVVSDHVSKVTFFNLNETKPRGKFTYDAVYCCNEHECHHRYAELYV

T2: human LEPR CRH1-Ig (D2,D3)-MMH (human, UniProt P48357 230-427, limits assumed)
T2 construct: domain: CRH1-Ig (D2,D3)
T2 sequence (looked up): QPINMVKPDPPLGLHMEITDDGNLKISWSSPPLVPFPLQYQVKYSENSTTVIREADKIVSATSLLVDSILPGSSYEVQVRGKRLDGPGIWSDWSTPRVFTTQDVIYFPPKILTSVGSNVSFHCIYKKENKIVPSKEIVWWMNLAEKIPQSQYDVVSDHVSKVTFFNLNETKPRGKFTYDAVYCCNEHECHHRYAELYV


What was measured:
human LEPR Ig (D3)-MMH = target: T1, human LEPR Ig (D3)-MMH; test: Luminex, myc-captured protein on beads
Description: (§1) Aliquots of microspheres with immobilized anti-myc monoclonal antibodies, prepared as described above, were added individually to 1 mL of the each of these protein supernatants. The microspheres were gently mixed, incubated for two hours at 25° C., washed twice with 1 mL of DBPS, centrifuged to remove the supernatant and finally resuspended in 1 mL of DPBS buffer. […] of anti-myc IgG coupled microspheres from individual reactions with full length human LEPR and with each of the human LEPR domain proteins were withdrawn and mixed together in 3.6 mL of PBS+20 mg/mL BSA+0.05% sodium azide (blocking buffer).
(§2) From this mixed pool, 75 μL of microspheres were plated per well on a 96 well filter plate (Millipore, Cat. No: MSBVN1250) and mixed with 25 μL of individual anti-human LEPR monoclonal antibodies (0.5 or 5 μg/mL), incubated for two hours at 25° C. and then washed twice with 200 μL of DPBS with 0.05% Tween 20 (washing buffer). […] After 30 minutes, the samples were washed twice with 200 µL of washing buffer and resuspended in 150 μL of wash buffer. The Median Fluorescence intensity (MFI) of the microspheres was measured in a Luminex Analyzer.

[1] = target: T2, human LEPR CRH1-Ig (D2,D3)-MMH; test: Luminex, myc-captured protein on beads
Description: as §1, §2

| Binder | Luminex MFI (human LEPR Ig (D3)-MMH) [MFI] | Luminex MFI [1] [MFI] |
| --- | --- | --- |
| H4H18492P2 (antibody, V domains shown) VH: QVQLQQWGAGLFKPSETLSLTCDVYGGSFRGYYWSWIRQPPGKGLEWIGEISYSGFTNYNPSLKSRVIISIDTSKNQFSLKMSSVTAADTAVYYCARVTYGYGTFDYWGQGTLVTVSS VL: not shown | 19 | 8680 |
| H4H18482P2 (antibody, human IgG4, V domains shown, human IgG4 Fc) VH: QVQLQESGPGLVKPSQTLSLTCTVSGGSISSGNYYWNWIRQQPGEGLEWIAYIYHNGVTNFNPSLKSRLTISVDTSKTQFSLKLRSVTAADTAVYYCARSGSWFENWYFDLWGRGTLVTVSS VL: not shown | 27 |  |
| H4H18487P2 (antibody, V domains shown) VH: QVQLQESGPGLVKPSETLSLTCTVSGGSISNSYWSWIRQPPGKGLEWIGYVYSRGNTKYNPSLTSRVTMSFDTSKNQFSLKLRSVTAADTAVYYCARSSSWYEDWYFDLWGRGTLVTVSS VL: not shown | 22 | 62 |

Source: US20190309079A1 (Regeneron, published 2019)
